Measurements as given in the nanobody polyreactivity screen of Harvey et al. (2022).

Assay: yeast display, Sf9 membrane polyspecificity reagent, FACS + sequencing; frameworks hold sequencing errors
In short: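 Polyreactivity labels are assigned by the sorting gate from which each nanobody was recovered. The gates were low and high (top ~1%), set on anti-HA fluorescence for expression and streptavidin fluorescence for reagent binding. Before sorting, galactose-induced (36–48 hours) yeast display cells were stained for 1 hour at 4 °C with 10% biotinylated, detergent-solubilized Sf9 membrane reagent.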

| Sequence | polyreactivity (PSR sort gate) |
| --- | --- |
| QVQLVESAGGLVQAGGSLRLSCAASGRNFVDYAMGWYRQAPGKERELVAAITQRGGSTYYADSVKGRFTISRDNAKNTVYLQMNSLKPEDTAVYYCAAVTRFYTKYYWGQGTQVTVSS | high polyreactivity |
| QVQLVESAGGLVQAGGSLRLSCAASGRTIRWYTMGWYRQAPGKERELVAGISSSGGSTYYADSVKGRFTISRDTAKNTVYLQMNSLKPEDTAVYYCNVVTWYYVFRPWEYDYWGQGTQVTVSS | low polyreactivity |
| QVQLVESAGGLVQAGGSLRLSCAASGSIFVYNTMGWYRQAPGKERELVASITYSGGSTYYADSVKGRFTISRDNAKNTVYLQMNSLKPEDTAVYYCNTDDVALQWDWYPYPYDYWGQGTQVTVSS | low polyreactivity |
| QVQLVESAGGLVQAGGSLRLSCAASGSNFGDYPLGWYRQAPGKERELVAAISVRGGSTYYADSVKGRFTISRDNAKITVYLQMKSLKPEDTAVYYCNKDLYRYPGYDYWGHGTQVTVSS | high polyreactivity |
| QVQLVESAGGLVQAGGSLRLSCAASGSTFLIYALGCYRHAPGKERELVAAITVSGGDTYYADSVKGRFTISRDNAKNTVYLQMNSLKPEDTAVYYCAAEGGNDYSSVDAGISYDYWGQGTKVTVSS | low polyreactivity |
| QVQLVESAGGLVQAGGSLRLSCAASGSTFWLYAMGWYRQAPGKERELVAAISYTGTSTYYADSVKGRFTISRDNAKNTVYLQMNSLKPEDTAVYDCAADFVGLVTGYDYSWGQGTQVTVSS | low polyreactivity |
| QVQLVESAGGLVQAGGSLRLSCAASGSTIYGCVMGWYRHAPGKERELVAGITRGGSTNYADSVKGRFTISRDNAKNTVYLQMNSLKPEDTAVYYCATRYFSRYYYWGQGTQVTVSS | high polyreactivity |
| QVQLVESAGGLVQAGGSLRLSCAASGTFYYYAMGWYRQAPGKERELVAAISNGDSTTYADSVKGRFTISRDNAKNTVYLQMNSLNPEDTAVYYCAAYRYTPRTSRGYYYWGQGTQVTVSS | low polyreactivity |
| QVQLVESAGGLVQAGGSLRLSCAASGYTISYANAMGWYRQAPGKERELVASISSTGGRTYYADSVKGRFTISRDNAKNTVYLQMNSLKPEDTAVYYCASRYWRYGYWGQGTQVTVSS | high polyreactivity |
| QVQLVESAGGLVQAGGSLRLSCAASVSIFFIYARGWYRQAPGKERELVATISRSDVSTFYGDSVKGRFTISRDNAKNTVYLQMNSLKPEDTAVYYCAAEWSPPEPIQLYGYWGQGTQVTVSS | high polyreactivity |
| QVQLVESAGGLVQAGGSLRLSCAASVSTIAPNAMGWYRQAPGKERELVASIRRGGSTHYADSVKGSFTISRDNAKNTVYLQMNSLKPEDTAVYYCAKDVWRHYLNLYDYWGQGTQVTLSS | low polyreactivity |
| QVQLVESAGGLVQAGGSLRLSCDASGRIFQRNAMGWYRQEPGKERQFVAAISSRGGTTYYADSVKGRFTISRDNAKNTVYLQMNSLKQEDNAVYYCAAGYVHLYYFHEYYWGQGTQVTVSS | high polyreactivity |
| QVQLVESAGGLVQAGGSLRLSCGASGRIFGWYALGWSRQAPGKERQLVAAITRSGGSTFYADSVKGRFTISRDNAKNTVYLQMHSLKPDDTAVYYCNARYFNGRHKHYYWGQGTQVTVSS | high polyreactivity |
| QVQLVESAGGLVQAGGSLRLSCPASGGISALYAMGWYRQAPGKERELVAAISASGGSTYYADSVKGRFTISRDNAKNTVYLQMNSLKPEDTAVYYCNVAVLTSDIYSTTIYYYGIYDYWGQGTQVTVSS | high polyreactivity |
| QVQLVESAGGLVQAGGSLRLSCSASGSTFSSNGMGWYRKAPGKERELVAAITSVGSTNYADSVKGRFTISRDNAKNTVYLQMNSLKPEDTAVYYCNAERTAYGGGDYWGQGTQVTVSS | low polyreactivity |
| QVQLVESAGGLVQAGGSLRLSSAASGRIFKYNAMGWYRQAPGKERELVAAISSSGARTYYADSVKGRFTISRDNAKNTVYLQMNSLKPEDTAVYYCAVYYYDFTSTEYGYWGLGTQVTVSS | high polyreactivity |

| Sequence | polyreactivity (PSR sort gate) |
| --- | --- |
| QVQLVESAGGLVQAGGSLSLSCAASGFTFYRNAMGWYRQAPGQERELVAAISRSGGRTYYADSVKGRFTISRDNAKNTVYLQMNSLKPEDTSVYYCAVYVTRDSGWWLYDYWGQGTQVTVSS | high polyreactivity |
| QVQLVESAGGLVQAGGSLSLSCAASGRIFYSYAMGWYRQAPGKERELVAAISSAGSTYYADSVKGRFTMSRDNEKNTVYLQTNSLKPEDTAVYYCAAYRAGNSYYPRLNYWGQGTQVTVSS | high polyreactivity |
| QVQLVESAGGLVQAGGSLSLSCAASGRIFYYNTMGWYRQAPGKERELVAAISSTASTTYADSVKGRFTISRDNAKNTVYLQMNILKPEDTAVYYCAADHRYHWAYPRGYYYWGQGTQVTVSS | high polyreactivity |
| QVQLVESAGGLVQAGGTLRLSCAASGSIFRTHTMGWYRQAPGKERELVAAITAIGDSTYYADAVKGRFTISRDNAKNTVNRQLHSLKPEDTAVYYCAAEKVSWGYHFYSSYDYWGQGTQVTVSS | low polyreactivity |
| QVQLVESAGGLVQAGVSLRLSCAASGRTFYWYTMGWYRQAPGKERELVAAISSAGSTYYADSVKGRFTISRDNAKNTVYLQMNSLKPEDTAVYSCAAGSHSGRAYYYWGQGTQVTVSS | high polyreactivity |
| QVQLVESAGGLVQARGSLRLSCAASGITFAQYAKGWYRQATGKERELVAGITRSGGSTHYADSVKGRFTISRDNAKYTVYLQMKSLKPEDSAVYYCNARYPYRGKRKPPDYWGQGTQVTVSS | high polyreactivity |
| QVQLVESAGGLVQEGGSLRISCAASGRIFFYYSMGWYRQAPGKERELVAAISQSGGSTYYADSVKGRFTISRDNAKNTVYLQMNSLKPEDTAVYYCNAADPYYDTSAVAGDYWGHGTQVTVSS | low polyreactivity |
| QVQLVESAGGLVQEGGSLRLSCAASGSTFGDNAMGWYSQAPGKERELVAAITSVGTTYYADSVKGRFTISRDNAKNTVYLQMNSLKPEDSAVYDCNADWSWYNYYDFDYWGQGTQVTVSS | low polyreactivity |
| QVQLVESAGGVVQAGGSLRLSSAASGSIFDGNAMGWYRPAPGKERQLVAAISGGGRTYYADSVKGRFTISRDNAKNTVYLQMNSLKPEDTAVYYCAAAYTFYVYGSYKVTFDYWGQGTQVTVSS | low polyreactivity |
| QVQLVESAGVLVQAGGSLRLSCAACGSIFDYYALGWYRQAPGKERELVDTISGGGGTTYYADSVKGRFTISRDNAKNTVYLIMNSLKPEDTAVYYCAADSLGYNYWGQGTQVTVSS | low polyreactivity |
| QVQLVESCGCLVQAGCSLRLSCAASGSTFQGYAMGWYRQAPGKERELVAAITIRGTRTYYADSVKGRFTISRDNAKNTVYLQMNSLKPEDTAVYYCAAYDYRHLEDKYDYWGQGTQVTVSS | high polyreactivity |
| QVQLVESCGGIVQAGGSLRLICAASGRIFDSNAMGWYRQSPGKETELVAAITTSGGSTFYADSVKVRFTISRDNAMNTVYLQMISLKPEDTAVYYCAAGYSFYYHAIFPFDYWGQGNQVTVSS | high polyreactivity |
| QVQLVESCGGLVHAGGSLRLSCAASGRTCVGNVMGWYRQAPGKERELVAAISRSGGNTYYADSVKGRFTISRDNAKNTVYLLMNSLKPEDTAVYYCAKVGLYGPVEYDYWGQGTQVTVSS | high polyreactivity |
| QVQLVESCGGLVQAGGILRLSCAASGFISSENAMGWYRQAPGKERELVAAISSGGSTNYADSVKGRFTISRDNAKNTVYLQMNRLKAEVTAVYYCAATLQGWYHEDESWGQGTQVTVSS | low polyreactivity |
| QVQLVESCGGLVQAGGRLRLSCADYGRTFSWYAMGSYRQAPGKERELVAAITFRGGRTYYADSVKGRFTISRDNAKNTVYIQMNSLKPEDTAVYYFNAVTYSSPYRFDYCGQGTQVTVSS | low polyreactivity |
